The target in assay [1] is T1, MR LBD (C808S) with K785E first charge clamp mutation, 6xHis-GST fusion protein (human, UniProt P08235 727-984).
T1 construct: not shown: glutathione S-transferase (GST) tag; thrombin protease site between GST and the MR LBD
T1 sequence: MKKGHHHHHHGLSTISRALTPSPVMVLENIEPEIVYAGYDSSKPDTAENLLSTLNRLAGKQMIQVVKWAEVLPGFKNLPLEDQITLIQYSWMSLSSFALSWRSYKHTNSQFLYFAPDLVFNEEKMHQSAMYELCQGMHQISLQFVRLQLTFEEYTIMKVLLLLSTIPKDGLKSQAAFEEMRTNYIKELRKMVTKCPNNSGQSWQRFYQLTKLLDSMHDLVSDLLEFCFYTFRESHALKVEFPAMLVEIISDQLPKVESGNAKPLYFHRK
Description: AlphaScreen, 100 nM corticosterone.

The target in assay [2] is T2, human MR LBD (residues 727-984) containing a C808S mutation, 6xHis-GST fusion protein (human, UniProt P08235 727-984).
T2 construct: also called purified MR LBD; MR LBD (C808S); not shown: glutathione S-transferase (GST) tag; thrombin protease site between GST and the MR LBD
T2 sequence: T1 sequence with E70K
Description: AlphaScreen quantitative competition with unlabeled peptide, MR LBD/corticosterone. In general terms: In Alpha technology, singlet oxygen from a donor bead excites a nearby acceptor bead.

The target in assay [3] is T3, MR LBD (C808S) with E962R first charge clamp (AF-2 helix) mutation, 6xHis-GST fusion protein (human, UniProt P08235 727-984).
T3 construct: not shown: glutathione S-transferase (GST) tag; thrombin protease site between GST and the MR LBD
T3 sequence: T1 sequence with E70K, E247R
The experiment in a line: AlphaScreen, 100 nM corticosterone.

The target in assay [4] is T2, human MR LBD (residues 727-984) …. Description: AlphaScreen competition (IC50 per FIG. 3F legend), MR LBD/corticosterone.
Description: (§1) The binding of various peptide motifs to MR was determined by AlphaScreen assays using a hexahistidine detection kit from Perkin-Elmer. MR proteins were prepared as 6×His-GST fusion proteins for the assays.
Assay [5] has the same target. The experiment in a line: AlphaScreen, biotinylated peptide and 6xHis-GST MR LBD/corticosterone.
Description: as §1

Positions count from the first letter of the chain named. No end group written: not given here.

B1: biotinylated SRC2-3 (TIF2) peptide (peptide)
peptide: QEPVSPKKKENALLRYLLDKDDTKD
modifications: also: biotinylated, site not given here
notes: also called third LXXLL motif of SRC2; TIF2/GRIP1 third motif
Turning to B1, the binding result in assay [1] is reported as “no binding”.

B2: unlabeled SRC1-1 peptide (peptide)
peptide: SQTSHKLVQLLTTTA
notes: also called 1st motif of SRC1
Consider B2, for which the IC50 (usually the concentration that gives 50% inhibition) in assay [2] was determined as 21.4 µM.

B3: biotinylated SRC1-2 peptide (peptide)
peptide: SPSSHSSLTERHKILHRLLQEGSP
modifications: also: biotinylated, site not given here
Take B3: the binding result in assay [1] and in assay [3] was “no binding” each time.

B4: unlabeled SRC1-4 peptide AQQKSLLQQLLTE (peptide)
peptide: AQQKSLLQQLLTE
notes: treated as one molecule; also called SRC1-4 LXXLL motif
Consider B4, for which the IC50 in assay [2] came out at 0.9 µM.

B5: SRC2-(2+3), human SRC2 fragment (residues 563-763) containing the 2nd and 3rd LXXLL motifs, 6xHis-GST fusion protein (other, UniProt Q15596 563-763, looked up)
chain: QNSPVNMNPPPLSKMGSLDSKDCFGLYGEPSEGTTGQAESSCHPGEQKETNDPNLPPAVSSERADGQSRLHDSKGQTKLLQLLTTKSDQMEPSPLASSLSDTNKDSTGSLPGSGSTHGTSLKEKHKILHRLLQDSSSPVDLAKLTAEATGKDLSQESSSTAPGSEVTIKQEPVSPKKKENALLRYLLDKDDTKDIGLPEIT
notes: No removal of the 6xHis-GST tag is described; also called purified SRC2 fragment; not shown: 6xHis tag; glutathione S-transferase (GST) tag
In turn, B5 displayed an IC50 in assay [4] of 0.04 µM.

B6: SRC2-(M2+3), SRC2 fragment (2+3) with the 2nd LXXLL motif mutated to LXXAA (other, UniProt Q15596 563-763, looked up)
chain: B5 chain with L131A, L132A
notes: not shown: 6xHis tag; glutathione S-transferase (GST) tag
For the molecule B6, the “fold decrease of binding affinity against SRC2-(2+3)” value in assay [4] is above 10 fold.

B7: biotinylated SRC1-4 peptide (peptide)
peptide: QKPTSGPQTPQAQQKSLLQQLLTE
modifications: also: biotinylated, site not given here
B7: the binding result in assay [1] is listed as “no binding”.

B8: biotinylated SMRT-2 peptide (peptide)
peptide: QAVQEHASASTNMGLEAIIRKALMGKY
modifications: also: biotinylated, site not given here
notes: also called SMRT corepressor motif
On to B8, for which the binding result in assay [5] was “no binding”.

B9: biotinylated NCOR-2 peptide (peptide)
peptide: GHSFADPASNLGLEDIIRKALMGSF
modifications: also: biotinylated, site not given here
notes: also called N-COR corepressor motif
For B9, the binding result in assay [5] was “no binding”.

B10: unlabeled SRC3-1 peptide (peptide)
peptide: SKGHKKLLQLLTCSS
notes: also called 1st motif of SRC3
As for B10, in assay [2], the concentration for half-maximal inhibition (IC50) was 16.8 µM.

These data come from patent US20070111265A1 (VAN ANDEL RESEARCH INSTITUTE, published 2007).
